Assay [1] has as its target T1, TMC-2206.
T1 construct: murine IgG1/κ secreted by hybridoma BHA2.1; labelled with Eu-N1-ITC where used as tracer; also called BHA2.1
Put plainly: fusion protein competing Eu-TMC-2206 off α2β1-coated plate.

Assay [2] deals with T1, TMC-2206. The assay is described as above. Here is the method:
After incubating the sealed plates for 1 hr at 37° C. to allow binding to reach equilibrium, 2 μL samples were transferred from each well into a fresh well containing DELFIA Enhancement Solution (100 μL/well; Perkin-Elmer) for the measurement of free (unbound) label. Enhancement Solution (100 μL/well) was added to the emptied wells for the measurement of bound label. The plate was shaken (Titer Plate Shaker speed setting of 5 for 5 minutes at room temperature) and time-resolved fluorescent (TRF) intensities were read using a Victor2 multi-label plate reader (Perkin-Elmer Wallac, Boston, Mas.).
The fusion proteins were then expressed and purified as described above for the human GST-α2 I domain fusion protein. […] Therefore, these and the primate fusion proteins were further purified by size exclusion chromatography on a Sephadex 75 10/30 (GE-Amersham) column (primate) by FPLC on an Akta-Basic FPLC system (GE-Amersham) to yield a monomeric fraction. […] The Kᵢ assays were performed as described above in Example 2. […] Plates were sealed and coating occurred overnight at 4° C. The next morning, the plates were washed twice with TBS solution and then blocked using 200 μL of the blocking solution described above for 1 hour at room temperature with shaking. After blocking, the blocking solution was removed but the wells were not washed. […]
The source holds these as a separate data set.

The target in assay [3] is T2, Humanized TMC-2206 (hIgG4/κ VH12.0/VL10.0Q).
T2 construct: labelled with Eu or Alexa-488 in some assays
T2 sequence (heavy, as listed by the source, chain 1 of 2): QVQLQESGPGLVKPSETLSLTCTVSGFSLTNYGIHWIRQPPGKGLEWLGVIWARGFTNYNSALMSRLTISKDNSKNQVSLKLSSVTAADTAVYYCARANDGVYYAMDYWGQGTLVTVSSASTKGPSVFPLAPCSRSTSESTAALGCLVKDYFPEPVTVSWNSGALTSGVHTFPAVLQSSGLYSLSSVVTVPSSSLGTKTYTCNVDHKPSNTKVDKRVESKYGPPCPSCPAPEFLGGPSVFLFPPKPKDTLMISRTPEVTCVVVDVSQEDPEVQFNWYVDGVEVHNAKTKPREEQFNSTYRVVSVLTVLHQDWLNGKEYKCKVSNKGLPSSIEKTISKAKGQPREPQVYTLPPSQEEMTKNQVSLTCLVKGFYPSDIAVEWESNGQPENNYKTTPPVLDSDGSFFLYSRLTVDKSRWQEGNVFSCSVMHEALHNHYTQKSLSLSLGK
T2 sequence (light, as listed by the source, chain 2 of 2): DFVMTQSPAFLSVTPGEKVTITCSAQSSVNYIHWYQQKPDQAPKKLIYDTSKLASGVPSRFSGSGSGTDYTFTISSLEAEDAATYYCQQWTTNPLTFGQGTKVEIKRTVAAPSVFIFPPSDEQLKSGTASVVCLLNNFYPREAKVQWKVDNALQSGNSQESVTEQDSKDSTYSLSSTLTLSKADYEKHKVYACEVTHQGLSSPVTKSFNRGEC
Put plainly: fusion protein competing Eu-humanized TMC-2206 off α2β1-coated plates. The text has this: The inhibition curves were fitted with the “one site competition” model using Prism software (GraphPad, Inc.) to obtain IC₅₀ values and to calculate the Kᵢ using the equation of Cheng and Prusoff (1973) and the respective values for KD from above.
The cloning of the human, rhesus macaque, rat, and mouse α2 I domains were described in Example 12. Cynomolgus and additional rhesus monkey α2 I domains were cloned from cDNA derived from total RNA extracted from skin tissue (MediCorp, Inc., Montreal, QC).

Assay [4] has as its target T1, TMC-2206. Put plainly: fusion protein competing Eu-TMC-2206 off α2β1-coated plate. As for the experimental part: Wells in a 96 well microtiter plate were coated with platelet α2β1-integrin (custom-coated with human platelet α2β1 by GTI Inc., Wis.) and then blocked with nonfat milk. […] After concentration in prewashed MicroSep concentrators (30-kDa cutoff; Pall Life Sciences at 9500 rpm (7000×g) in a JA-20 rotor (Beckman Instruments, Inc.) for 20 minutes at 4° C.), antibodies were adjusted to 4.0 mg/mL with PBS containing a final concentration of 100 mM NaHCO₃, pH 9.3. The mAb/bicarbonate mixture (0.250 mL) was gently mixed into a vial containing 0.2 mg N¹-(p-isothiocyanatobenzyl)-diethylenetriamine-N¹,N²,N³N³-tetraacetic acid chelated with Eu³⁺ (Eu-N1-ITC; Perkin Elmer Life Sciences) and reacted overnight at 4° C. without stirring. Each labeled antibody mixture was applied to a separate PD-10 column (GE Biosciences, Piscataway, N.J.) pre-equilibrated with Running Buffer (50 mM Tris, pH 7.4 and 138 mM NaCl). Fractions (0.5 mL) were collected and assayed for total protein (Bradford reagent; Bio-Rad Laboratories, Hercules, Calif.) using a SpectraMax 384 absorbance plate reader and for europium after 1:10.000 dilution in DELFIA Enhancement Solution (Perkin-Elmer) by time-resolved fluorescence (TRF) using a Victor2 multi-label plate reader (Perkin Elmer). The fractions that were positive for both protein and Eu label were pooled and applied to new PD-10 columns and samples collected and assayed for total protein and for europium content by TRF calibrated against a europium standard solution (Perkin-Elmer) to calculate the fluor: protein ratio.
The source holds these as a separate data set.

In assay [5] the target is T1, TMC-2206. Kind of assay: ELISA, GST fusion protein on immobilized TMC-2206. As for the experimental part: The Kᵢ assays were performed as described above in Example 2. […] Plates were sealed and coating occurred overnight at 4° C. The next morning, the plates were washed twice with TBS solution and then blocked using 200 μL of the blocking solution described above for 1 hour at room temperature with shaking. After blocking, the blocking solution was removed but the wells were not washed. Instead, a serial dilution of GST fusion protein was made, added to the wells and then incubated for 2 hours at room temperature with shaking. The wells were then aspirated and a TBS washing buffer applied for 5 minutes at room temperature. The washing step was repeated twice more before the secondary antibody was applied. The secondary antibody step consisted of Amersham's HRP-conjugated rabbit anti-GST antibody diluted 1:2000 in blocking buffer. One hundred μL of secondary antibody was added to each well and incubated at room temperature for 1.5 hours with shaking. The wells were again aspirated and washed three times with wash buffer before adding the substrate reaction mixture. One hundred μL of substrate reaction mixture (1:1 dilution of TMB kit) was then added to each well for 6 minutes. […] The reaction within the wells was then read and quantified by spectrophotometric absorption using the Molecular Dynamics plate reader and associated Softmax software, respectively. […]

Where a chain is given by its changes, count along the chain named. Like-named read-outs stand apart in the source and are kept apart here.

B1: GST-human α2 I domain fusion protein (other)
chain: GSSPDFQLSASFSPATQPCPSLIDVVVVCDESNSIYPWDAVKNFLEKFVQGLDIGPTKTQVGLIQYANNPRVVFNLNTYKTKEEMIVATSQTSQYGGDLTNTFGAIQYARKYAYSAASGGRRSATKVMVVVTDGESHDGSMLKAVIDQCNHDNILRFGIAVLGYLNRNALDTKNLIKEIKAIASIPTERYFFNVSDEAALLEKAGTLGEQIFSIEGTVEFIVTD
notes: the reverse primer ends at ...SIEGTV; also called GST-α2 I domain; hα2I; not shown: glutathione S-transferase tag encoded by vector pGEX-2TK
As to B1, the Ki in assay [1] is 280 pM; in assay [2] it was 330 pM; in assay [3], 570 pM; in assay [4], 180 pM.

B2: GST-mouse α2 I domain fusion protein (other)
chain: SPDFQFLTSFSPAVQACPSLVDVVVVCDESNSIYPWEAVKNFLVKFVTGLDIGPKKTQVALIQYANEPRIIFNLNDFETKEDMVQATSETRQHGGDLTNTFRAIEFARDYAYSQTSGGRPGATKVMVVVTDGESHDGSKLKTVIQQCNDDEILRFGIAVLGYLNRNALDTKNLIKEIKAIASTPTERYFFNVSDEAALLEKAGTLGEQIFSIEGTVQGGDNFQMEMSQ
notes: also called murine α2 I-GST fusion protein; not shown: glutathione S-transferase tag encoded by vector pGEX-2TK
For the molecule B2, in assay [5], the “fold shift in affinity” value is above 1500 fold.

B3: GST-rhesus α2 I domain fusion protein (other)
chain: SPDFQLSASFSPATQPCPSLIDVVVVCDESNSIYPWDAVKNFLEKFVQGLDIGPTKTQVGLIQYANNPRVVFNLNTYKTKEEMIVATSQTSQYGGDLTNTFGAIQYARKYAYSAASGGRRSATKVMVVVTDGESHDGSMLKAVIDQCNHDNILRFGIAVLGYLNRNALDTKNLIKEIKAIASIPTERYFFNVSDEAALLEKAGTLGEQIFSIEGTV
notes: also called rhesus GST-α2 I; not shown: glutathione S-transferase tag encoded by vector pGEX-2TK
Turning to B3, the figures for the Ki in assay [2] and in assay [3] were 4400 pM and 400 pM, respectively.

B4: GST-cynomolgus α2 I domain fusion protein of Example 12 (aspartic acid at position 40) (other)
chain: B3 chain with K40D
notes: also called cynomolgus monkey GST-α2 I; polymorphic cynomolgus I domain; not shown: glutathione S-transferase tag encoded by vector pGEX-2TK
As for B4, the binding result in assay [5] is reported as “no binding (tested: 40 nM)”.

Source of the values: patent publication US20070128190A1 (GLENMARK PHARMACEUTICALS S A, published 2007).
